Experimental data reported in patent publication US12296066B2, “Methods of wound healing with Serp-1 polypeptides” (ARIZONA BOARD OF REGENTS ON BEHALF OF ARIZONA STATE …, priority 2018, dated 2025).

Key:
CD31-positive vessels = assay: CD31 immunohistochemistry of peri-wound vascularization; type: in vivo, C57BL6/J mice
Excerpt: (§1) Skin tissues were collected at day 1, 4, 7 and 15 and fixed in 10% neutral-buffered formalin for at least two days before tissue processing with a Leica TP1050 and embedded in paraffin with a Leica EG1160 embedding station. Blocks were serially sectioned using a Leica RM2165 microtome (4 μm sections) and stained with hematoxylin and eosin (H&E) by standard procedure. […]
(§2) Slides were imaged on an Olympus BX51 upright microscope equipped with an Olympus DP74 high-resolution camera operated by cellSens Dimensions v1.16. Images were collected as objective-calibrated TIFFs and subsequently analyzed and processed in Image)/FIJI (Schindelin et al., Nat. […] Positively stained cells were counted per high power field for each treatment group.
The blood vessels were analyzed by immunohistochemistry with antibodies against the endothelial marker CD31 (also called PECAM-1), a marker for endothelial cells commonly used to indicate wound bed blood vessels (Vanchinathan et al., Am. J. Clin. Pathol. (2015). doi:10.1309/AJCPRHM8CZH5EMFD). The number of positive staining vessels in different optical fields was quantified from four pairs of saline- and Serp-1-treated wounds. […]

Ly6G positive cells = assay: Ly6G immunohistochemistry, neutrophil infiltration in wounds; type: in vivo, C57BL6/J mice; conditions: day 4; p=0.110
Excerpt: (§3) Skin tissues were collected at day 1, 4, 7 and 15 and fixed in 10% neutral-buffered formalin for at least two days before tissue processing with a Leica TP1050 and embedded in paraffin with a Leica EG1160 embedding station. Blocks were serially sectioned using a Leica RM2165 microtome (4 μm sections) and stained with hematoxylin and eosin (H&E) by standard procedure. Sections were additionally stained by immunohistochemistry (IHC) for CD31 (Abcam, #ab28364, 1:100), Ly6G (Invitrogen, #14-5931-82, 1:100), and arginase-1 (Cell Signaling, #93668, 1:200), and with Masson's trichrome (Masson, J Tech Methods. 12 (1929) 75-90) and Herovici's polychrome (Herovici, Stain Technol. 38 (1963) 204-6, Levame and Meyer, Pathol. Biol. (Paris). 35 (1987) 1183-8) as special stains for collagen.
Slides were imaged on an Olympus BX51 upright microscope equipped with an Olympus DP74 high-resolution camera operated by cellSens Dimensions v1.16. Images were collected as objective-calibrated TIFFs and subsequently analyzed and processed in Image)/FIJI (Schindelin et al., Nat. Methods. 9 (2012) 676-682. doi:10.1038/nmeth.2019). Positively stained cells were counted per high power field for each treatment group.
Therefor neutrophil infiltration was analyzed at sites of wound healing with and without treatment with Serp-1 at day 4 by immunohistochemistry with antibodies against Ly6G (FIG. 6A).

[1] = system: collagen bundles (Type 3 / Type 1); assay: Herovici's staining of collagen maturation in healed wounds; type: in vivo, C57BL6/J mice
Excerpt: as §3
Collagens play a crucial role in angiogenesis during tissue regeneration. It is well known that collagen I a central factor allowing for endothelial cells to initiate precapillary cord formation. In contrast increased deposition of collagen III reduces the density of blood vessels at sites of wound healing (Davis, Circ. Res. (2005). doi:10.1161/01.RES.0000191547.64391.e3, O'Rourke, Adv. Wound Care. (2018). doi:10.1089/wound.2018.0827). […]

[2] = system: full thickness dorsal skin wound; assay: full-thickness splinted excisional wound healing model, planimetric wound closure; type: in vivo, C57BL6/J mice
Excerpt: The mouse dermal wound healing splinted model was used for these studies where the contraction is held by a donut-shaped splint remains the most widely accepted and extensively used model to study skin wound healing in mice (Galiano et al., Wound Repair Regen. 12 (2004) 485-492. doi:10.1111/j.1067-1927.2004.12404.x, Wang et al., Nat. Protoc. 8 (2013) 302-309. doi:10.1038/nprot.2013.002, Dunn et al., J. Vis. Exp. (2013) 1-6. doi:10.3791/50265).
Mice (N=29 mice) were anesthetized by intraperitoneal injection of a cocktail of 120 mg/kg ketamine and 6 mg/kg xylazine, 0.1 ml/25 g bodyweight and prepped by shaving an area of approximately 1×1 inch spanning from between the ears to the peak of the spine, centered between each shoulder. The shaved area was sterilized by two washes with 2% chlorhexidine gluconate solution (Dyna-Hex 2®, Xttrium Laboratories) and 70% ethanol using cotton swabs.
A 3.5 mm punch biopsy was performed centered in the shaved area to create the full-thickness wound excision. Treatment or control as saline solution or chitosan-collagen hydrogel preparation were applied to the wound using a hand-held micropipette. In brief, 13 mice were given saline inoculation at the time of injury, 6 mice were given Serp-1 at the time of injury at doses or 1 or 2 μg. Six mice were given 1 μg of Serp-1 and followed by second bolus at 3 days post wounding. A second group of 6 mice were given Serp-1/chitosan treatment applied at the time of injury and 6 mice were given chitosan gel alone.
A donut-shaped silicon splint (O.D. 15 mm; I.D. 5.0 mm; Culture-Well™ Grace Biolabs) with Tegaderm™ (3M Company) affixed to one side was coated with cyanoacrylate glue (Krazy Glue®) on the opposite side and carefully placed on the back of the mouse with the biopsy site centered within the inner hole. Six interrupted sutures (4-0 black Ethilon monofilament with a FS-2 reverse cutting needle; Ethicon, Inc.) were placed around the outer edge of the splint to complete the procedure. Mice were allowed to recover and returned to single-housed cages for the remainder of the trial.
On the day of the procedure (Day 0) and on every subsequent day of follow-up, for a total of 15 days, mice were collected and wounds assessed while awake. Digital images were collected using a Google Pixel model 1 or 3XL smartphone camera. Planimetric measurements of wound healing progress was performed in Image)/FIJI and calibrated to known pixel-to-size measurements (Schindelin et al., Nat. Methods. 9 (2012) 676-682. doi:10.1038/nmeth.2019).
Serp-1 has proven to be an effective modulator of coagulation pathways and immune responses in numerous animal models of vascular injury and transplant. […] In this study, the efficacy of topical Serp-1 application was tested in a full-thickness excisional model of wound healing (FIG. 2A). A 3.5 mm biopsy punch was used to create a full thickness dorsal skin wound in C57BL6/J wildtype mice. Wounds were produced through the entirety of the dermis without puncturing the panniculus carnosus. In an initial analysis, Serp-1 was applied in saline solution and compared to control saline solution alone, given directly to the wound bed. A silicone splint with a gas-permeable Tegaderm layer was sutured over the bed. The silicone splint prevented wound contraction, allowing direct visualization and photography of wound re-epithelialization during the course of a 15-day healing period (FIG. 2B).

dermal collagen fibers = assay: quantitative collagen texture analysis, Masson's trichrome; type: in vivo, C57BL6/J mice; conditions: 15 days wound healing
Protocol: as §1
Quantitative collagen texture analysis was performed in Image)/FIJI (Schindelin, Nat. […] Local thickness of collagen bundles was determined with the plugin “LocalThickness 4.0.2” using the methods described by Saito and Toriwaki (Saito, Pattern Recognit. 27 (1994) 1551-1565. doi:10.1016/0031-3203(94)90133-3), and by Hildebrand and Rüegsegger (Hildebrand, J. Microsc. 185 (1997) 67-75. doi:10.1046/j.1365-2818.1997.1340694.x.). Regularity of collagen bundles was determined with the plugin “Directionality” as previously reported (Sensini, Biofabrication. 9 (2017) 015025. doi:10.1088/1758-5090/aa6204).
During wound healing, collagen accumulation and organization are correlated with scar formation. […] Local scar thickness (FIG. 7C) and directionality (FIG. 7D) of collagen in scars were analyzed using ImageJ after Masson's trichrome staining under microscopic examination (20× magnification).

[3] = system: Arg-1 positive macrophages; assay: Arginase-1 immunohistochemistry, M2 macrophage differentiation in wounds; type: in vivo, C57BL6/J mice
Excerpt: as §1, §2
Additionally the differentiation of M2 macrophages was =analyzed (FIG. 6C), during wound-healing (Kotwal and Chien, Macrophage differentiation in normal and accelerated wound healing, in: Results Probl. Cell Differ., 2017. doi:10.1007/978-3-319-54090-0_14), by IHC with antibodies against Arginase-1 (EC3.5.3.1). […]

[4] = intravenous bolus injections, patients with unstable angina; cited from earlier work

B1: Serp-1: Recombinant Serp-1 (m008.1L), secreted Myxomavirus glycoprotein serpin, expressed in CHO cells; SEQ ID NO: 1 (protein, listed as Homo sapiens)
chain: MKYLVLVLCLTSCACRDIGLWTFRYVYNESDNVVFSPYGLTSALSVLRIAAGGNTKREIDVPESVVEDSDAFLALRELFVDASVPLRPEFTAEFSSRFNTSVQRVTFNSENVKDVINSYVKDKTGGDVPRVLDASLDRDTKMLLLSSVRMKTSWRHVFDPSFTTDQPFYSGNVTYKVRMMNKIDTLKTETFTLRNVGYSVTELPYKRRQTAMLLVVPDDLGEIVRALDLSLVRFWIRNMRKDVCQVVMPKFSVESVLDLRDALQRLGVRDAFDPSRADFGQASPSNDLYVTKVLQTSKIEADERGTTASSDTAITLIPRNALTAIVANKPFMFLIYHKPTTTVLFMGTIT
number of vessels each image (CD31-positive) (CD31-positive vessels; day 7, peri-wound area, saline control 10.0±2.5): 36.3±4.9
appearance of CD31-positive vessels (CD31-positive vessels; day 7, versus saline alone): appreciably more “mature” CD31-positive vessels, with increased length and thickness
Ly6G positive cells in healing tissues (Ly6G positive cells): non significant trend toward an increase
ratio of collagen types in treated wound ([1]; Herovici's stain, FIG. 8): increasing the ratio of collagen III to collagen I
collagen maturation by Herovici's stain ([1]; day 15, versus saline-treated wounds): greater degree of maturation
wound closure earlier compared to saline group ([2]; 1.0 μg Serp-1, in the first week): four
wound closure ([2]; 1.0 μg/wound at day 0 and day 3, day 5): 40%
days less to achieve same degree of closure as control group at day 7 (or 2.0 μg at day 5) ([2]; 1.0 μg/wound/mouse, single dose, mean): 3 days
wound closure ([2]; 2.0 μg Serp-1, day 5): greater than 20%
wound closure ([2]; 2.0 μg Serp-1, day 7): 47%
wound healing accelerated by ([2]; 2 μg/mouse, single topical dose day 0, p<0.0001): approximately 3 days
day of healing equivalent to saline alone on Day 7 ([2]; Serp-1 [1+1]: 1 μg/mouse on Days 0 and 3 (FIG. 2C)): 3 days
faster closure rate ([2]; mouse model, conclusion): 40%
scarring ([2]; mouse model, conclusion): reduction in scarring
completeness of closure ([2]; repeated treatment group (1.0 μg day 0 + day 3), 15 days of observation): more completely closure than other groups
wound closure ([2]; single dose treatment groups, day 5): 30%
time to wound closure accelerated by, compared to saline ([2]; topical, doses of between 1 microgram and 2 micrograms, punch wounds on mouse back): 2 to 5 days
collagen bundle thickness (dermal collagen fibers): increased bundle thickness
collagen directionality (dermal collagen fibers): more organized directionality
density of Arg-1 positive macrophages ([3]; day 4, compared to control wounds): significantly increased density
density of Arg-1 positive (M2) macrophages ([3]; day 7, compared to untreated wounds): significant higher
safety [4]: proved safe
